Consider one protein from article PMC5737657 (Nucleic Acids Research, 2017).

The data set deals with the molecule itself. Description: crystal structure.

B1: VapC26 toxin with N-terminal (His)6 tag (native, co-expressed with VapB26) (natural protein)
chain: MIIDTSALLAYFDAAEPDHAAVSECIDSSADALVVSPYVVAELDYLVATRVGVDAELAVLRELAGGAWELANCGAAEIEQAARIVTKYQDQRIGIADAANVVLADRYRTRTILTLDRRHFSALRPIGGGRFTVIP
As to B1, the binding result is “binds”.
